Measured values: the supplement of paper PMC9112550, “Optimization of the antimicrobial peptide Bac7 by deep mutational scanning” (BMC Biology, 2022)

Tested on: Escherichia coli TOP10
Assay: shrunken log2 fold change of peptide-encoding DNA abundance (4.5 h post-induction vs induction); higher = less antimicrobial activity (less host growth inhibition)
Settings: time post-induction: 4.5 h; library: site-saturation at positions 5, 18, 19, 20
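Note: peptides expressed intracellularly from a pBAD plasmid library in pooled LB shake-flask culture, induced with 0.3% L-arabinose, DNA abundance read by NGS, three biological replicates, DESeq2 with apeglm shrinkage.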

In the case of RRIRKRPPRLPRPRPRPKDYPRP, the “shrunken log2 fold change” value is reported as -0.0531.

With RRIRKRPPRLPRPRPRPKEEPRP the “shrunken log2 fold change” value was 0.0277.

In the case of RRIRKRPPRLPRPRPRPKGVPRP, the “shrunken log2 fold change” value is reported as 0.286.

In the case of RRIRKRPPRLPRPRPRPKHKPRP, the “shrunken log2 fold change” value is reported as 0.362.

For RRIRKRPPRLPRPRPRPKIWPRP, the “shrunken log2 fold change” value was 0.475.

For RRIRKRPPRLPRPRPRPKKHPRP, the “shrunken log2 fold change” value was 0.276.

With RRIRKRPPRLPRPRPRPKMDPRP the “shrunken log2 fold change” value was 0.158.

With RRIRKRPPRLPRPRPRPKMEPRP the “shrunken log2 fold change” value was 0.368.

With RRIRKRPPRLPRPRPRPKMFPRP the “shrunken log2 fold change” value was -0.146.

With RRIRKRPPRLPRPRPRPKNAPRP the “shrunken log2 fold change” value was 0.216.

RRIRKRPPRLPRPRPRPKNPPRP was tested, and the “shrunken log2 fold change” value was 0.0739.

In the case of RRIRKRPPRLPRPRPRPKQLPRP, the “shrunken log2 fold change” value is reported as 0.417.

For RRIRKRPPRLPRPRPRPKSWPRP, the “shrunken log2 fold change” value was 0.308.

In the case of RRIRKRPPRLPRPRPRPKVIPRP, the “shrunken log2 fold change” value is reported as 0.156.

With RRIRKRPPRLPRPRPRPKVLPRP the “shrunken log2 fold change” value was 0.0605.

In the case of RRIRKRPPRLPRPRPRPKWHPRP, the “shrunken log2 fold change” value is reported as 0.0114.

With RRIRKRPPRLPRPRPRPKWPPRP the “shrunken log2 fold change” value was -0.031.

RRIRKRPPRLPRPRPRPKWSPRP was tested, and the “shrunken log2 fold change” value was 0.506.

For RRIRKRPPRLPRPRPRPKWWPRP, the “shrunken log2 fold change” value was 0.238.

For RRIRKRPPRLPRPRPRPKWYPRP, the “shrunken log2 fold change” value was -0.235.

RRIRKRPPRLPRPRPRPLAWPRP was tested, and the “shrunken log2 fold change” value was 0.928.

In the case of RRIRKRPPRLPRPRPRPLDIPRP, the “shrunken log2 fold change” value is reported as -0.0215.

With RRIRKRPPRLPRPRPRPLDWPRP the “shrunken log2 fold change” value was 0.474.

With RRIRKRPPRLPRPRPRPLEMPRP the “shrunken log2 fold change” value was 0.659.

In the case of RRIRKRPPRLPRPRPRPLEQPRP, the “shrunken log2 fold change” value is reported as 0.0352.

For RRIRKRPPRLPRPRPRPLFWPRP, the “shrunken log2 fold change” value was 0.593.

RRIRKRPPRLPRPRPRPLGDPRP was tested, and the “shrunken log2 fold change” value was 0.227.

For RRIRKRPPRLPRPRPRPLGGPRP, the “shrunken log2 fold change” value was 0.288.

In the case of RRIRKRPPRLPRPRPRPLHAPRP, the “shrunken log2 fold change” value is reported as 0.449.

In the case of RRIRKRPPRLPRPRPRPLHDPRP, the “shrunken log2 fold change” value is reported as 0.169.

For RRIRKRPPRLPRPRPRPLHLPRP, the “shrunken log2 fold change” value was -0.198.

With RRIRKRPPRLPRPRPRPLHRPRP the “shrunken log2 fold change” value was 0.36.

With RRIRKRPPRLPRPRPRPLHWPRP the “shrunken log2 fold change” value was 0.59.

For RRIRKRPPRLPRPRPRPLIEPRP, the “shrunken log2 fold change” value was 0.105.

For RRIRKRPPRLPRPRPRPLIQPRP, the “shrunken log2 fold change” value was 0.112.

With RRIRKRPPRLPRPRPRPLLGPRP the “shrunken log2 fold change” value was 0.628.

With RRIRKRPPRLPRPRPRPLLYPRP the “shrunken log2 fold change” value was 0.0166.

For RRIRKRPPRLPRPRPRPLNLPRP, the “shrunken log2 fold change” value was -0.123.

For RRIRKRPPRLPRPRPRPLNPPRP, the “shrunken log2 fold change” value was 0.129.

With RRIRKRPPRLPRPRPRPLPRPRP the “shrunken log2 fold change” value was 1.08.

RRIRKRPPRLPRPRPRPLQAPRP was tested, and the “shrunken log2 fold change” value was 1.34.

RRIRKRPPRLPRPRPRPLQRPRP was tested, and the “shrunken log2 fold change” value was 0.331.

In the case of RRIRKRPPRLPRPRPRPLREPRP, the “shrunken log2 fold change” value is reported as 0.718.

With RRIRKRPPRLPRPRPRPLRNPRP the “shrunken log2 fold change” value was 0.653.

With RRIRKRPPRLPRPRPRPLSKPRP the “shrunken log2 fold change” value was 0.213.

In the case of RRIRKRPPRLPRPRPRPLSPPRP, the “shrunken log2 fold change” value is reported as 0.615.

With RRIRKRPPRLPRPRPRPLYIPRP the “shrunken log2 fold change” value was -0.329.

With RRIRKRPPRLPRPRPRPMADPRP the “shrunken log2 fold change” value was -0.000921.

With RRIRKRPPRLPRPRPRPMANPRP the “shrunken log2 fold change” value was 0.0288.

With RRIRKRPPRLPRPRPRPMDLPRP the “shrunken log2 fold change” value was 0.198.

For RRIRKRPPRLPRPRPRPMDYPRP, the “shrunken log2 fold change” value was 0.0283.

With RRIRKRPPRLPRPRPRPMEGPRP the “shrunken log2 fold change” value was -0.01.

In the case of RRIRKRPPRLPRPRPRPMEQPRP, the “shrunken log2 fold change” value is reported as 0.033.

RRIRKRPPRLPRPRPRPMERPRP was tested, and the “shrunken log2 fold change” value was -0.024.

RRIRKRPPRLPRPRPRPMETPRP was tested, and the “shrunken log2 fold change” value was -0.0146.

RRIRKRPPRLPRPRPRPMGGPRP was tested, and the “shrunken log2 fold change” value was 0.0559.

For RRIRKRPPRLPRPRPRPMGPPRP, the “shrunken log2 fold change” value was 0.339.

For RRIRKRPPRLPRPRPRPMGYPRP, the “shrunken log2 fold change” value was -0.0267.

In the case of RRIRKRPPRLPRPRPRPMHVPRP, the “shrunken log2 fold change” value is reported as -0.0434.

RRIRKRPPRLPRPRPRPMLAPRP was tested, and the “shrunken log2 fold change” value was 0.843.
